± gives the uncertainty stated by the source.
Assay: self-splicing fitness, log relative to wild type (ln ratio); higher = more splicing; Tetrahymena group I intron in knt gene, E. coli kanamycin selection, DiMSum; sequences stand for … in CUCUCU…GGAGGGAAAAGUUAUCAGGCAUGCACCUGGUAGCUAGUCUUUAAACCAAUAGAUUGCAUCGGUUUAAAAGGCAAGACCGUCAAAUUGCGGGAAAGGGGUCAACAGCCGUUCAGUACCAAGUCUCAGGGGAAACUUUGAGAUGGCCUUGCAAAGGGUAUGGUAAUAAGCUGACGGACAUGGUCCUAACCACGCAGCCAAGUCCUAAGUCAACAGAUCUUCUGUUGAUAUGGAUGCAGUUCACAGACUAAAUGUCGGUCGGGGAAGAUGUAUUCUUCUCAUAAGAUAUAGUCGGACCUCUCCUUAAUGGGAGCUAGCGGAUGAAGUGAUGCAACACUGGAGCCGCUGGGAACUAAUUUGUAUGCGAAAGUAUAUUGAUUAGUUUUGGAGUACUCGUGGUCG
Procedure, shortened: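 A randomised library covering all eight P1ex-region intron nucleotides was built with the intron in the knt kanamycin-resistance gene on pET-22b(+) and held in E. coli BL21(DE3). Cells were grown overnight at 37°C or 30°C on LB agar, with or without 25 μg/mL kanamycin, plus 100 μg/mL carbenicillin, 50 μM IPTG and 0.2% rhamnose, and pooled colonies were amplicon-sequenced on an Illumina HiSeq 2500. DiMSum fitness is the error-weighted combination of wild-type-normalised replicate fold changes, kanamycin versus none.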

Row | Sequence | self-splicing fitness (ln) (30 °C) | self-splicing fitness (ln) (37 °C)
1 | GUCAAGCAAUAUUACGUGUG | -2.69 ± 0.068 | -1.61 ± 0.071
2 | GUCCAGCAAUAUUACGACGU | 0.172 ± 0.091 | 0.365 ± 0.085
3 | GUCCAGCAAUAUUACGAUAU | -0.337 ± 0.056 | 0.114 ± 0.065
4 | GUCCAGCAAUAUUACGAUCA | -0.611 ± 0.12 | -0.93 ± 0.13
5 | GUCCAGCAAUAUUACGCAAG | -1.32 ± 0.12 | -1.28 ± 0.14
6 | GUCCAGCAAUAUUACGCAGC | -0.998 ± 0.17 | 0.198 ± 0.14
7 | GUCCAGCAAUAUUACGCCAA | -2.63 ± 0.18 | -2.72 ± 0.16
8 | GUCCAGCAAUAUUACGCCAC | -2.51 ± 0.44 | –
9 | GUCCAGCAAUAUUACGCCUU | -0.571 ± 0.1 | -0.309 ± 0.11
10 | GUCCAGCAAUAUUACGCUCC | -0.889 ± 0.17 | -0.563 ± 0.2
11 | GUCCAGCAAUAUUACGCUUA | -0.882 ± 0.067 | -0.314 ± 0.07
12 | GUCCAGCAAUAUUACGGAGG | -1.76 ± 0.06 | -1.17 ± 0.078
13 | GUCCAGCAAUAUUACGGCCG | -3.67 ± 0.24 | -2.69 ± 0.19
14 | GUCCAGCAAUAUUACGGCGA | -1.32 ± 0.12 | -0.997 ± 0.14
15 | GUCCAGCAAUAUUACGGCUG | -3.93 ± 0.31 | -3.61 ± 0.39
16 | GUCCAGCAAUAUUACGGUAC | -2.97 ± 0.18 | -1.92 ± 0.17
17 | GUCCAGCAAUAUUACGGUCG | -0.533 ± 0.071 | -0.131 ± 0.097
18 | GUCCAGCAAUAUUACGGUGA | -0.608 ± 0.051 | -0.131 ± 0.071
19 | GUCCAGCAAUAUUACGGUGG | -3.36 ± 0.15 | -2.71 ± 0.12
20 | GUCCAGCAAUAUUACGUACA | -1.73 ± 0.1 | -0.367 ± 0.1
21 | GUCCAGCAAUAUUACGUCCG | -4.42 ± 0.29 | -0.283 ± 0.22
22 | GUCCAGCAAUAUUACGUCGC | -0.994 ± 0.096 | 0.0208 ± 0.12
23 | GUCCAGCAAUAUUACGUCGG | -3.83 ± 0.41 | -1.39 ± 0.2
24 | GUCCAGCAAUAUUACGUCUG | -3.8 ± 0.47 | -2.47 ± 0.33
25 | GUCCAGCAAUAUUACGUGAC | -1.23 ± 0.13 | -1.93 ± 0.16

Row | Sequence | self-splicing fitness (ln) (30 °C) | self-splicing fitness (ln) (37 °C)
26 | GUCCAGCAAUAUUACGUGAG | 0.151 ± 0.044 | 0.375 ± 0.065
27 | GUCCAGCAAUAUUACGUGGG | -3.68 ± 0.13 | -2.36 ± 0.14
28 | GUCCAGCAAUAUUACGUUAA | -1.64 ± 0.1 | -0.751 ± 0.079
29 | GUCCAGCAAUAUUACGUUAC | -1.55 ± 0.089 | -0.179 ± 0.1
30 | GUCCAGCAAUAUUACGUUGC | -2.05 ± 0.13 | -0.538 ± 0.16
31 | GUCCAGCAAUAUUACGUUUG | -2.85 ± 0.11 | -0.981 ± 0.1
32 | GUCGAGCAAUAUUACGAAAC | -2.72 ± 0.41 | -0.657 ± 0.37
33 | GUCGAGCAAUAUUACGAACA | -1.67 ± 0.37 | -0.344 ± 0.29
34 | GUCGAGCAAUAUUACGAAUC | -1.52 ± 0.11 | -0.929 ± 0.15
35 | GUCGAGCAAUAUUACGACUU | -1.88 ± 0.27 | -1.3 ± 0.32
36 | GUCGAGCAAUAUUACGCAAA | -2.51 ± 0.39 | –
37 | GUCGAGCAAUAUUACGCAAU | -1.08 ± 0.1 | -0.467 ± 0.14
38 | GUCGAGCAAUAUUACGCCAA | -2.68 ± 0.35 | -2.6 ± 0.48
39 | GUCGAGCAAUAUUACGCGGC | -3.88 ± 0.47 | -2.25 ± 0.39
40 | GUCGAGCAAUAUUACGCGGG | -2.85 ± 0.15 | -1.94 ± 0.19
41 | GUCGAGCAAUAUUACGGAAA | -2.83 ± 0.23 | -2.11 ± 0.22
42 | GUCGAGCAAUAUUACGGAAC | -3.01 ± 0.19 | -1.9 ± 0.2
43 | GUCGAGCAAUAUUACGGACU | -3.29 ± 0.47 | -1.73 ± 0.24
44 | GUCGAGCAAUAUUACGGCUA | -1.78 ± 0.21 | -1.47 ± 0.18
45 | GUCGAGCAAUAUUACGGGUG | -4.13 ± 0.25 | -2.11 ± 0.19
46 | GUCGAGCAAUAUUACGGGUU | -3.03 ± 0.2 | -1.04 ± 0.16
47 | GUCGAGCAAUAUUACGGUUG | -2.68 ± 0.2 | -2.15 ± 0.26
48 | GUCGAGCAAUAUUACGUAAG | -2.59 ± 0.14 | -1.34 ± 0.18
49 | GUCGAGCAAUAUUACGUCCC | -1.03 ± 0.19 | -0.687 ± 0.33
50 | GUCGAGCAAUAUUACGUGAC | -4.99 ± 0.45 | -2.57 ± 0.35

Row | Sequence | self-splicing fitness (ln) (30 °C) | self-splicing fitness (ln) (37 °C)
51 | GUCUAGCAAUAUUACGAAAC | -0.862 ± 0.13 | -0.29 ± 0.14
52 | GUCUAGCAAUAUUACGAAGG | -2.34 ± 0.18 | -1.43 ± 0.16
53 | GUCUAGCAAUAUUACGACUU | -1.32 ± 0.12 | -0.56 ± 0.11
54 | GUCUAGCAAUAUUACGAGGU | – | -1.99 ± 0.4
55 | GUCUAGCAAUAUUACGAUGA | -1.21 ± 0.28 | -0.329 ± 0.13
56 | GUCUAGCAAUAUUACGCAUC | -0.727 ± 0.13 | 0.171 ± 0.14
57 | GUCUAGCAAUAUUACGCCAA | – | -0.981 ± 0.29
58 | GUCUAGCAAUAUUACGCUCA | 0.346 ± 0.16 | 0.103 ± 0.19
59 | GUCUAGCAAUAUUACGCUGA | -1.21 ± 0.16 | -0.707 ± 0.13
60 | GUCUAGCAAUAUUACGCUGC | – | -2.71 ± 0.34
61 | GUCUAGCAAUAUUACGGACA | -1.63 ± 0.18 | -0.275 ± 0.14
62 | GUCUAGCAAUAUUACGGCAC | -0.276 ± 0.14 | 0.385 ± 0.13
63 | GUCUAGCAAUAUUACGGGAA | -1.24 ± 0.086 | -0.758 ± 0.084
64 | GUCUAGCAAUAUUACGUCAU | -0.258 ± 0.12 | -0.425 ± 0.081
65 | GUCUAGCAAUAUUACGUCUU | -0.274 ± 0.09 | 1.25 ± 0.099
66 | GUCUAGCAAUAUUACGUGGA | -2.12 ± 0.23 | -2.69 ± 0.24
67 | GUCUAGCAAUAUUACGUGGC | -2.84 ± 0.44 | -3.01 ± 0.43
68 | GUCUAGCAAUAUUACGUGUC | -0.8 ± 0.089 | -0.0601 ± 0.086
69 | GUGAAGCAAUAUUACGAAAG | -1.41 ± 0.15 | -0.599 ± 0.15
70 | GUGAAGCAAUAUUACGAACG | -1.57 ± 0.4 | –
71 | GUGAAGCAAUAUUACGAAGC | -2.06 ± 0.08 | -1.06 ± 0.11
72 | GUGAAGCAAUAUUACGACAG | -2.07 ± 0.16 | -1.25 ± 0.17
73 | GUGAAGCAAUAUUACGACGC | 0.482 ± 0.12 | 0.847 ± 0.17
74 | GUGAAGCAAUAUUACGAGCA | 0.204 ± 0.1 | -0.115 ± 0.14
75 | GUGAAGCAAUAUUACGAGCU | -1.12 ± 0.14 | -1.19 ± 0.21

Row | Sequence | self-splicing fitness (ln) (30 °C) | self-splicing fitness (ln) (37 °C)
76 | GUGAAGCAAUAUUACGCCAG | -1.09 ± 0.2 | -1.1 ± 0.22
77 | GUGAAGCAAUAUUACGCCGA | -0.95 ± 0.15 | -0.474 ± 0.16
78 | GUGAAGCAAUAUUACGCCUC | -1.22 ± 0.25 | -1.09 ± 0.48
79 | GUGAAGCAAUAUUACGCGCA | -0.00454 ± 0.099 | 0.509 ± 0.13
80 | GUGAAGCAAUAUUACGCUAC | -3.39 ± 0.27 | -1.95 ± 0.31
81 | GUGAAGCAAUAUUACGCUUG | -1.44 ± 0.11 | -0.0927 ± 0.098
82 | GUGAAGCAAUAUUACGGAUU | -0.624 ± 0.1 | -0.344 ± 0.12
83 | GUGAAGCAAUAUUACGGCCC | -0.145 ± 0.18 | –
84 | GUGAAGCAAUAUUACGGCUU | -4.92 ± 0.36 | -3.3 ± 0.26
85 | GUGAAGCAAUAUUACGGGAU | -1.1 ± 0.07 | -0.971 ± 0.093
86 | GUGAAGCAAUAUUACGUAAG | -0.979 ± 0.088 | -0.0954 ± 0.13
87 | GUGAAGCAAUAUUACGUAAU | -1.19 ± 0.057 | -0.668 ± 0.069
88 | GUGAAGCAAUAUUACGUCGC | -2.77 ± 0.25 | -1.75 ± 0.18
89 | GUGAAGCAAUAUUACGUGAA | -2.63 ± 0.11 | -0.504 ± 0.12
90 | GUGAAGCAAUAUUACGUGCG | -0.0545 ± 0.077 | 0.038 ± 0.094
91 | GUGAAGCAAUAUUACGUUGU | -2.68 ± 0.17 | -1.63 ± 0.15
92 | GUGCAGCAAUAUUACGAAAU | -1.31 ± 0.084 | -0.452 ± 0.097
93 | GUGCAGCAAUAUUACGAGGC | -1.83 ± 0.31 | -2.43 ± 0.26
94 | GUGCAGCAAUAUUACGAUUU | -1.06 ± 0.1 | -0.209 ± 0.12
95 | GUGCAGCAAUAUUACGCAUC | – | -3.79 ± 0.37
96 | GUGCAGCAAUAUUACGCCCU | -1.57 ± 0.14 | -0.805 ± 0.16
97 | GUGCAGCAAUAUUACGCCUU | -1.26 ± 0.16 | -0.215 ± 0.14
